Data on three molecules can be found in patent US20170158762A1 (ANAPTYSBIO, published 2017).

Assay [1] deals with T1, Monomeric soluble human DDR1-avi-his, APE1469.6 (hDDR1) (human, UniProt Q08345 21-416, limits assumed).
T1 construct: also called hDDR1-avi-his; huDDR1; not shown: avi tag and his tag
Description: SPR (BIACORE T200), antibody captured on anti-human IgG Fc, monomeric DDR1-avi-his as analyte, 25 C, 1:1 fit. The protocol:
anti-Human IgG (Fc-specific, ≈10,000 RU) (GE Healthcare, Little Chalfont, Buckinghamshire, UK) was immobilized on a BIACORE™[…] chip using EDC-activated amine coupling chemistry. Antibodies (0.5 μg/mL, 50 second capture time at 10 μl/minute) were then captured using this surface to a target capture level of ˜125 RU. Monomeric soluble human DDR1-avi-his was then flowed over captured antibody (300 second association, 600 second dissociation) using a three-fold serial dilution series from 200 nM to 0.27 nM. Runs were performed at 25° C. and HBS-EP+, pH 7.6 buffer was used for all dilutions (Teknova, Hollister, Calif.). Captured antibody and antigen were removed between each cycle using two regeneration steps with 3M MgCl₂ (60 seconds contact time) to ensure a fresh binding surface for each concentration of antigen. The resulting sensorgrams were fit globally using a 1:1 binding model to calculate on- and off-rates (ka and kd, respectively) and dissociation constants as a measure of overall affinity (KD).
In general terms: SPR reads the build-up and loss of mass on a sensor chip optically.

The target in assay [2] is cell surface DDR1 on T47D cells and 293/DDR1 cells (UniProt Q08345). Briefly: cell-based or functional assay.
Sequence of cell surface DDR1 on T47D cells and 293/DDR1 cells (Q08345 19-913, stated change not applied): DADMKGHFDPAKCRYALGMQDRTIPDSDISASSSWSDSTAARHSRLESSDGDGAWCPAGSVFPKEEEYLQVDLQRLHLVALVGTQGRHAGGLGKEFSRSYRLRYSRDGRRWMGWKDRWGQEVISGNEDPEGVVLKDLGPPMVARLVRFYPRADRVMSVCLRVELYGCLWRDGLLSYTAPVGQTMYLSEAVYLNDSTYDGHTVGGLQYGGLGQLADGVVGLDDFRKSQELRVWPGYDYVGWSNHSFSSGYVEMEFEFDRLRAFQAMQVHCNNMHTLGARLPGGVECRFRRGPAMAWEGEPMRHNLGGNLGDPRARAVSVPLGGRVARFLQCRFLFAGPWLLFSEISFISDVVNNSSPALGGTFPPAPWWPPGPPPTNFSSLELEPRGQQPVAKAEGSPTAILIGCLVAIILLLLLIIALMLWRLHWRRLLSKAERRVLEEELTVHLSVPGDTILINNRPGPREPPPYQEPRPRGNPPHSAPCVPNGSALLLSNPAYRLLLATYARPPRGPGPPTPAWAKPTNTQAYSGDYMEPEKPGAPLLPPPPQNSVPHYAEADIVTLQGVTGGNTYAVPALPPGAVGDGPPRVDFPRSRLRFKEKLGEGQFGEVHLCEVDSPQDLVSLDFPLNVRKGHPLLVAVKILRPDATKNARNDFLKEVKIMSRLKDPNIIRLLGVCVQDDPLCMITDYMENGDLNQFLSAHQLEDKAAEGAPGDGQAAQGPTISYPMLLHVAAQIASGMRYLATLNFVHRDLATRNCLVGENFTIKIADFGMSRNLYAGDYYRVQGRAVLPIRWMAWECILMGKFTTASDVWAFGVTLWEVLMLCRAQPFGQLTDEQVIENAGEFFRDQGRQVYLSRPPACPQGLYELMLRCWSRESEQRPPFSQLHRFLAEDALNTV
Assay [3] addresses T1, Monomeric soluble human DDR1-avi-his, …. Briefly: ELISA on coated hDDR1-avi-his; antibody kept in normal mouse serum (day 0, 1, 4, 7 at 37 C; day 7 at 4 C) or PBS day 0; absorbance 450-540 nm. The procedure: The APE05570 and APE05571 antibodies described in Table 4 were tested for the ability to bind cell surface DDR in mouse serum. The antibodies were incubated in normal mouse serum for 1, 4, or 7 days at 37° C. Varying concentrations of the antibodies were then analyzed for ability to bind to DDR1 by an ELISA assay. Briefly, hDDR1-avi-his was coated on plates at 1 μg/m overnight at 4° C. and washed three times in phosphate buffered saline with Tween (PBST). Plates were then blocked with 3% BSA/PBS (200 μl/well) for one hour. The antibodies were then diluted, added to the washed plates, and incubated for two hours at room temperature. Bound antibodies were detected with goat anti HuIgG-(H+L chain)-horseradish peroxidase (HRP) at a dilution of 1:10,000. After washing the plates, 100 μl of 3,3′,5,5′-tetramethylbenzidine (TMB) substrate was added to detect antibody, and plates were read at 450 nm using a SpectraMax™ microplate reader (Molecular Devices, LLC., Sunnyvale, Calif.).

T1 sequence (Q08345 21-416 limits assumed): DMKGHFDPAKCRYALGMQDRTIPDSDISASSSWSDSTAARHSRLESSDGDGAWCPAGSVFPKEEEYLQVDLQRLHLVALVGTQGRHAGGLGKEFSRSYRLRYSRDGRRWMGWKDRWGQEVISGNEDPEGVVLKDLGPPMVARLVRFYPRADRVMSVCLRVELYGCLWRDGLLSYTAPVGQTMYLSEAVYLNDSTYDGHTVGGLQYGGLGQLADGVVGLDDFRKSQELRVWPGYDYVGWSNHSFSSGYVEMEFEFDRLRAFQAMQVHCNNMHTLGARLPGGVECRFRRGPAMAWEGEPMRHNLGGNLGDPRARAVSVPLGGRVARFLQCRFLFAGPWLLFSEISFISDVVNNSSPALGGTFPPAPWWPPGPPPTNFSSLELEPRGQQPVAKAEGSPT

B1: APE05552 (antibody, V domains shown)
VH: EVQLVQSGAEVKKPGESLKISCKGSGYSFTNSYWIGWVRQMPGKGLEWMGMIYPGDSDTRYSPSFQGQVTISSDKSISTAYLQWNSLKASDTAVYYCAKDLAPSAYYDYWGQGTLVTVSS
VL: EIVLTQSPGTLSLSPGERATLSCRASQSVRSSYLAYLAWYQQKPGQAPRLLIYDASSRATGIPDRFSGSGSGTDFTLTISRLEPEDFAVYYCQQYGRLPYTFGQGTRLEIKR
notes: from the stated CDR positions they appear to be variable regions; human IgG (captured with anti-human IgG Fc); also called APE05552.2
For B1, in assay [1], the Kd was 43.8 nM, the koff turned out to be 0.0222 s⁻¹ and the kon came out at 507000 M⁻¹ s⁻¹. The same molecule showed a P-DDR1 IC50 (nM); collagen I-stimulated T47D cells, Phospho-DDR1 ELISA in assay [2] of 27.6 nM.

B2: APE05551 (antibody, V domains shown)
VH: EVQLVQSGAEVKKPGESLKISCKGSGYSFTNSYWIGWVRQMPGKGLEWMGMIYPGDSDTRYSPSFQGQVTISSDKSISTAYLQWNSLKASDTAVYYCAKDLAPSAYYNYWGQGTLVTVSS
VL: EIVLTQSPGTLSLSPGERATLSCRASQSVRSSYLAYLAWYQQKPGQAPRLLIYDASSRATGIPDRFSGSGSGTDFTLTISRLEPEDFAVYYCQQYGRLPYTFGQGTRLEIKR
notes: from the stated CDR positions they appear to be variable regions; human IgG (captured with anti-human IgG Fc); also called APE05551.2
For the molecule B2, in assay [1], the Kd amounted to 51.4 nM, the koff amounted to 0.0284 s⁻¹ and the kon came to 551000 M⁻¹ s⁻¹. Also, the P-DDR1 IC50 (nM); collagen I-stimulated T47D cells, Phospho-DDR1 ELISA in assay [2] is 26.1 nM.

B3: APE05571 (antibody, V domains shown)
VH: EVQLVQSGAEVKKPGESLKISCKGSGYSFTNSYWIGWVRQMPGKGLEWMGMIYPGDSDTRYSPSFQGQVTISSDKSISTAYLQWASLKASDTAVYYCAKDLTPSAYYDYWGQGTLVTVSS
VL: EIVLTQSPGTLSLSPGERATLSCRASQSVRSSYLAYLAWYQQKPGQAPRLLIYDASSRATGIPDRFSGSGSGTDFTLTISRLEPEDFAVYYCQQYGRLPYTFGQGTRLEIKR
notes: from the stated CDR positions they appear to be variable regions; human IgG (captured with anti-human IgG Fc); also called APE05571.1
Regarding B3, in assay [3], the “EC50 (read off the curve)” value was approximately 7 ng/mL. In assay [1], this molecule registered a Kd of 47 nM, a koff of 0.0233 s⁻¹ and a kon of 496000 M⁻¹ s⁻¹. This molecule also registered a P-DDR1 IC50 (nM); collagen I-stimulated T47D cells, Phospho-DDR1 ELISA in assay [2] of 19.3 nM.

In general, Kd refers to the equilibrium constant for the complex coming apart. A lower Kd goes with a tighter complex. One may read the koff as the rate constant with which the complex falls apart. For orientation: kon means a measure of how fast the partners come together. Read a high kon as fast association. A word on the EC50 (read off the curve): it is the concentration at which the effect is half-maximal. Read a high EC50 (read off the curve) as lower potency in that assay.
